Our source for the ED50 for lysis of the Daudi cell line (ADCC, purified NK cells, V/F donors) values is patent US20090117111A1.

The test addresses FcγRIIIa on NK cells of V/F donors (both aa158 allotypes, V and F) (human). The test is described as follows: cell-based or functional assay.

On to monoclonal antibody CHIR-12.12, for which the ED50 for lysis of the Daudi cell line (ADCC, purified NK cells, V/F donors) was 0.002 nM.

The substance rituximab (Rituxan) (antibody) displayed an ED50 for lysis of the Daudi cell line (ADCC, purified NK cells, V/F donors) of 0.021 nM.
